Test results taken from patent US20070225231A1.
Like-named read-outs stand apart in the source and are kept apart here. Positions of bridges follow the written chain, without caps; N, C: chain ends. No end group written: not given here.

Tests used:
[1] = target: myelin basic protein (MBP) (Sigma); assay: reverse ELISA: IgG PAP binding to MBP, no inhibitor
[2] = target: human C1q (human) (UniProt P02745); assay: reverse ELISA: PAP on C1q-coated plate, no inhibitor
[3] = target: human C1q (human) (UniProt P02745); assay: as above; remark: listed apart in the source
[4] = target: highly purified FcγIIa (UniProt P12318); assay: reverse ELISA: PAP on FcγIIa-coated plate, no inhibitor
Sequence of highly purified FcγIIa (P12318 34-217 limits assumed): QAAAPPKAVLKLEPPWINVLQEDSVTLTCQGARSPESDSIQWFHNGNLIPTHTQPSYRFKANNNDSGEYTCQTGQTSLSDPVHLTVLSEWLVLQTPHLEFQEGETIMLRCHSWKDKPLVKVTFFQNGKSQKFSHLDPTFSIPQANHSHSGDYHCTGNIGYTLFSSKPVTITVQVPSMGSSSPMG

[5] = target: highly purified FcγIII; assay: reverse ELISA: PAP on FcγIII-coated plate, no inhibitor
[6] = target: highly purified FcγIIb (UniProt P31994); assay: reverse ELISA: PAP on FcγIIb-coated plate, no inhibitor
Sequence of highly purified FcγIIb (P31994 43-217 limits assumed): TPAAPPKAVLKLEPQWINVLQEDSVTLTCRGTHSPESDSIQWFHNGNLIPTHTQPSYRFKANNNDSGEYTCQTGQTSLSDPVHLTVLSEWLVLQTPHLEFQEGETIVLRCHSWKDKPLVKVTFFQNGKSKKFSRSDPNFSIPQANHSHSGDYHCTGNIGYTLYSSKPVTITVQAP

[7] = target: histone (Sigma); assay: reverse ELISA: IgG PAP binding to histones, no inhibitor
[8] = target: myelin basic protein (MBP) (Sigma); assay: reverse ELISA: rabbit PAP on MBP-coated plate, no inhibitor
[9] = target: histone (Sigma); assay: reverse ELISA: rabbit PAP on histone-coated plate, no inhibitor
[10] = target: whole human IgG4 (human) [IgG part: P01861]; assay: reverse ELISA: immune complexes on IgG4-coated plate, no inhibitor
Sequence of whole human IgG4 (human) [IgG part: P01861] (P01861 other isoform, or with tags, fused parts or gaps): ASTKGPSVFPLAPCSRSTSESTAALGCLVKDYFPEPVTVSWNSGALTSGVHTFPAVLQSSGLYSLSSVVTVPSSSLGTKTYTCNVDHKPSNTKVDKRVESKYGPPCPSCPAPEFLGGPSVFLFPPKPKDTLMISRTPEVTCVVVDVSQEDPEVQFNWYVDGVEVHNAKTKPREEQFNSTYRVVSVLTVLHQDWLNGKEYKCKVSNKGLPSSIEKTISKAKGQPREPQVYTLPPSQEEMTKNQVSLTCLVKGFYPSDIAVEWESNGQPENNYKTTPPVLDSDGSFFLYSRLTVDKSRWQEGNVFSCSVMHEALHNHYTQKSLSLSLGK

[11] = target: peroxidase-anti-peroxidase (PAP) immune complexes (UniProt P00433); assay: reverse ELISA: rabbit PAP pre-incubated with soluble histone; competitor: immobilised histone
Sequence of peroxidase-anti-peroxidase (PAP) immune complexes (UniProt P00433) (P00433 31-338, one chain of several): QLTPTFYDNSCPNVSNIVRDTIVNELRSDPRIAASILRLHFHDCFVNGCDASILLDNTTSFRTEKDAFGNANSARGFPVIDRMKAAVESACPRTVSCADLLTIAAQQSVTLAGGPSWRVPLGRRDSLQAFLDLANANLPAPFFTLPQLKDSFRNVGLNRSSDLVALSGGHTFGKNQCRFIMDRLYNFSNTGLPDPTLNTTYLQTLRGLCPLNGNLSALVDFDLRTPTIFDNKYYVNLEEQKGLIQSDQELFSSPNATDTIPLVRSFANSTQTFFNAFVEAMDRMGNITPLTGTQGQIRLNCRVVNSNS

[12] = target: peroxidase-anti-peroxidase (PAP) immune complexes (UniProt P00433); assay: reverse ELISA: rabbit PAP pre-incubated with soluble MBP; competitor: immobilised MBP
[13] = target: peroxidase-anti-peroxidase (PAP) immune complexes (UniProt P00433); assay: reverse ELISA: PAP pre-incubated with peptide; competitor: immobilised FcγIII
[14] = target: peroxidase-anti-peroxidase (PAP) immune complexes (UniProt P00433); assay: reverse ELISA: PAP pre-incubated with peptide; competitor: immobilised FcγIIa
[15] = target: peroxidase-anti-peroxidase (PAP) immune complexes (UniProt P00433); assay: reverse ELISA: PAP pre-incubated with peptide; competitor: immobilised FcγIIb
[16] = target: human monomeric IgG (Research Diagnostics); assay: RF test kit: peptide pre-incubated with human monomeric IgG, washed, then RF; competitor: RF
[17] = target: peroxidase-anti-peroxidase (PAP) immune complexes (UniProt P00433); assay: reverse ELISA: PAP pre-incubated with peptide, then on C1q-coated plate; competitor: immobilised C1q
[18] = target: peroxidase-anti-peroxidase (PAP) immune complexes (UniProt P00433); assay: reverse ELISA: PAP pre-incubated with peptide; competitor: immobilised RF
[19] = target: peroxidase-anti-peroxidase (PAP) immune complexes (UniProt P00433); assay: reverse ELISA: immune complexes with peptide; competitor: immobilised IgG4
[20] = target: peroxidase-anti-peroxidase (PAP) immune complexes (UniProt P00433); assay: reverse ELISA: rabbit PAP pre-incubated with peptide; competitor: immobilised MBP
[21] = target: peroxidase-anti-peroxidase (PAP) immune complexes (UniProt P00433); assay: reverse ELISA: rabbit PAP pre-incubated with peptide; competitor: immobilised histone
[22] = target: peroxidase-anti-peroxidase (PAP) immune complexes (UniProt P00433); assay: reverse ELISA: PAP pre-incubated with peptide; competitor: immobilised C1q
[23] = target: peroxidase-anti-peroxidase (PAP) immune complexes (UniProt P00433); assay: reverse ELISA: rabbit PAP pre-incubated with peptide; competitor: immobilised RF

Sequence of human C1q (human) (P02745 23-245 limits assumed, chain 1 of 3): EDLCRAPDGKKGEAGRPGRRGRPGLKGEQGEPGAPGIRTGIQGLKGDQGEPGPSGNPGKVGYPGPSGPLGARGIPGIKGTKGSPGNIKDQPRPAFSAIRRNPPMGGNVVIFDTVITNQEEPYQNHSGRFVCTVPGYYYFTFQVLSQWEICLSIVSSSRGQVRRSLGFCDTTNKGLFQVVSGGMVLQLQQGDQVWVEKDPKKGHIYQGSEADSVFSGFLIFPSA
Sequence of human C1q (human) (P02746 28-253 limits assumed, chain 2 of 3, further chain): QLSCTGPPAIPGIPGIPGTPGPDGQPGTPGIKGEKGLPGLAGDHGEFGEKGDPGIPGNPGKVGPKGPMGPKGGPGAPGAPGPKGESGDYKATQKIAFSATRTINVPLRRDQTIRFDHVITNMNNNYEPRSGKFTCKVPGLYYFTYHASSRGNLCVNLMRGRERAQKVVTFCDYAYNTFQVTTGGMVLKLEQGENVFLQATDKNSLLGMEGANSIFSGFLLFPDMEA
Sequence of human C1q (human) (P02747 29-245 limits assumed, chain 3 of 3, further chain): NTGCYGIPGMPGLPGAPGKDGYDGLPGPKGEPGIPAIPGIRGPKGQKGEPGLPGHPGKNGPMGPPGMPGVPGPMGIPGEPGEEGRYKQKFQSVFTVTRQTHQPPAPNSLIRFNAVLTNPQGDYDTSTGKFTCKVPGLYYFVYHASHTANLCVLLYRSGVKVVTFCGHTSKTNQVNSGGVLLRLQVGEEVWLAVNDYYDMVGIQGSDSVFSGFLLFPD

OD 450 nm [13] [OD] | OD 450 nm [14] [OD] | OD 450 nm [15] [OD] | OD 405 nm [16] [OD] | OD 405 nm [17] [OD] | OD 405 nm [18] [OD] | OD 405 nm [19] [OD] | OD 405 nm [20] [OD] | OD 405 nm [21] [OD] | Molecule | further results
 |  |  |  |  |  |  |  |  | peroxidase-anti-peroxidase (PAP) immune complexes (from UniProt P00433 31-338) | OD 405 nm [1]: 2.34 OD; OD 405 nm [2]: 0.467 OD; OD 405 nm [3]: 2.35 OD; OD 405 nm [4]: 1.6 OD; OD 450 nm [4]: 3.6 OD; OD 405 nm [5]: 1.59 OD; OD 450 nm [5]: 3.6 OD; OD 405 nm [6]: 1.39 OD; OD 450 nm [6]: 3.6 OD; OD 405 nm [7]: 2.11 OD; OD 405 nm [8]: 1.03 OD; OD 405 nm [9]: 1.27 OD; OD 405 nm [10]: 0.716 OD
 |  |  |  |  |  |  |  |  | histone (Sigma) | OD 405 nm [11]: 0.057 OD
 |  |  |  |  |  |  |  |  | myelin basic protein (MBP) (Sigma) | OD 405 nm [12]: 0.139 OD
2.41 | 2.43 | 2.26 | 1.42 | 0.458 |  |  |  |  | DCAAHLGELAACT (cyclized by a disulfide bond between the two cysteine residues) [… (SEQ ID NO:40)] | 
1.34 | 1.48 | 1.07 | 1.4 |  | 0.622 | 0.557 | 0.706 | 0.729 | DCAWHLGELAACT (cyclized by a disulfide bond between the two cysteine residues) [… (SEQ ID NO:42)] | 
 |  |  | 0.962 |  |  |  |  |  | DCAFHLGELVWCT (cyclized by a disulfide bond between the two cysteine residues) [… (SEQ ID NO:3)] | OD 405 nm [22]: 0.859 OD; OD 405 nm [13]: 0.81 OD; OD 405 nm [14]: 0.66 OD; OD 405 nm [15]: 0.51 OD; OD 405 nm [23]: 0.267 OD
2.53 | 2.54 | 1.95 | 1.23 | 0.193 | 0.109 | 0.096 | 0.473 | 0.363 | DCARHLGELVWCT (disulfide 2-12 (inferred)) [… (SEQ ID NO:4)] | 
1.6 | 1.15 | 1.21 | 1.32 | 0.205 | 0.106 | 0.129 | 0.489 | 0.444 | PCARHLGELVWCT (disulfide 2-12 (inferred)) [… (SEQ ID NO:41)] | 
 |  |  |  |  |  | 0.107 |  |  | APPDCARHLGELVWCT (cyclized by a disulfide bond between the two cysteine residues) [… (printed in Table 8 with SEQ ID NO:14)] | 
3.5 | 3.4 | 3.28 | 1.31 | 0.247 | 0.152 | 0.191 | 0.569 | 0.359 | RCARHLGELVWCT (disulfide 2-12 (inferred)) [… (SEQ ID NO:5)] | 
